Data taken from the supplement of paper PMC9732359.
± gives the uncertainty stated by the source.

Experiment: protein stability index of a GFP-peptide fusion (yeast GPS) (PSI 1-4); higher = more stable; sorted into four equal gates, so the index is relative within each strain
How it was run: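 Each library plasmid carries Cherry plus GFP with a tiled 17-residue yeast protein peptide fused downstream, and the pooled library was carried in yeast. Mid-log cultures in leucine-free medium were sorted into four equal gates by GFP/Cherry ratio. Reads from Illumina sequencing of PCR-amplified plasmids from each gate were assigned to strains by barcodes. Per peptide, the protein stability index was computed as the summed products of gate read frequency and gate number.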

Sequence | protein stability index (doa10∆) | protein stability index (pdr5∆) | protein stability index (san1∆) | protein stability index (ubr1∆)
NLQTVHFGHCFNITDNG [GRR1] | 1.22 ± 0.091 | – | – | –
NLSEARLVIKEALVERR [RPB4] | 3.33 ± 0.28 | 2.75 ± 0.13 | 2.83 ± 0.21 | 3.3 ± 0.13
NLSIDEVAVPDRVAKVL [RPO31] | 3.09 ± 0.076 | 3.05 ± 0.073 | 3.11 ± 0.06 | 3.22 ± 0.045
NLTAGIIVAGYDDKNKG [PRE3] | 2 ± 0.071 | 2.75 ± 0.096 | 2.53 ± 0.12 | 2.16 ± 0.077
NNAKLLTFMTCNSLHIP [ESC2] | 1.71 ± 0.046 | 1.72 ± 0.052 | 1.6 ± 0.079 | 2.06 ± 0.047
NNDADKGRSYAYFMVGA [RIP1] | 3.24 ± 0.11 | 3.32 ± 0.1 | 3.29 ± 0.084 | 3.07 ± 0.075
NNEKVVQYLRSVQDLGG [YML031W/NDC1] | 3.1 ± 0.2 | 3.04 ± 0.27 | 3.44 ± 0.19 | 3.61 ± 0.24
NNLFRIIAELSFLKVDP [YJL039C/NUP192] | 3.08 ± 0.054 | 3.02 ± 0.12 | 3.24 ± 0.093 | 3.07 ± 0.086
NNMNVNMNLNPQMFLNQ [GAL11] | 2.14 ± 0.043 | 2.56 ± 0.046 | 2.46 ± 0.048 | 2.48 ± 0.035
NNNHKDKKLLRRLLNLY [SWI1] | 2.88 ± 0.054 | 2.93 ± 0.054 | 2.92 ± 0.058 | 3.03 ± 0.054
NNNNTNTQPSASGFGFG [YGR119C/NUP57] | 3.22 ± 0.081 | 2.28 ± 0.059 | 2.51 ± 0.062 | 2.89 ± 0.036
NNNNTTTTTTTTNNNNT [SWI1] | 3.07 ± 0.031 | 2.68 ± 0.032 | 3.363 ± 0.023 | 3.128 ± 0.02
NNSNTVASSTNFTSPTA [SWI1] | 2.82 ± 0.039 | 2.67 ± 0.039 | 2.86 ± 0.041 | 2.71 ± 0.033
NNSSSGMNNASAGLFGS [YGL172W/NUP49] | 3.18 ± 0.084 | 3.08 ± 0.051 | 3.29 ± 0.036 | 3.35 ± 0.068
NNSTSNANTVFSERAAM [SWI1] | 2.63 ± 0.06 | 3.27 ± 0.097 | 2.97 ± 0.062 | 3.24 ± 0.089
NNVVINFKDMSHVNKYG [PRP8] | 2.64 ± 0.1 | 2.6 ± 0.079 | 2.75 ± 0.059 | 2.57 ± 0.075
NPEPNKKNIQKAKSNQT [IRR1] | 2.25 ± 0.062 | 2.43 ± 0.062 | 2.56 ± 0.13 | 2.56 ± 0.051
NPIHVSRHFASYANLPG [FAS1] | 2.23 ± 0.059 | 2.36 ± 0.05 | 1.94 ± 0.081 | 2.11 ± 0.038
NPLIELTPIQKKIMDET [ITC1] | 2.67 ± 0.087 | 3.08 ± 0.08 | 3.24 ± 0.057 | 3.07 ± 0.076
NPNTNTNSNNTPLQSQL [PGD1] | 2.91 ± 0.071 | 2.96 ± 0.066 | 2.88 ± 0.058 | 2.98 ± 0.07
NPRRLEIKDGRSLFLRN [YMR153W/NUP53] | 3.27 ± 0.1 | 2.9 ± 0.11 | 3.2 ± 0.087 | 3.22 ± 0.085
NPSEFTPNMVNSEISNL [SSN2] | 2.66 ± 0.08 | 2.5 ± 0.1 | 2.58 ± 0.08 | 2.91 ± 0.062
NPSVKQGEVGAVFIVPK [SWP82] | 3.23 ± 0.26 | 3.23 ± 0.15 | 3.28 ± 0.12 | –
NPSYPGMMSTTGTARLN [YJL039C/NUP192] | 2.97 ± 0.097 | 3.1 ± 0.053 | 3.13 ± 0.077 | 3.24 ± 0.076
NQASTSKRVYKILSPTM [CDC53] | 2.58 ± 0.062 | 2.57 ± 0.05 | 2.54 ± 0.051 | 2.59 ± 0.067
NQILMSVNFFVSLLKKN [RPL1A] | 1.84 ± 0.052 | 2.35 ± 0.046 | 2.15 ± 0.075 | 2.39 ± 0.04

Sequence | protein stability index (doa10∆) | protein stability index (pdr5∆) | protein stability index (san1∆) | protein stability index (ubr1∆)
NQPHQSQTPSFNTNSSF [YOR098C/NUP1] | 2.64 ± 0.042 | 2.99 ± 0.034 | 2.93 ± 0.036 | 3.047 ± 0.03
NQVGTDELILPLPSHAL [YDL116W/NUP84] | 3.09 ± 0.057 | 3.09 ± 0.045 | 2.83 ± 0.052 | 3.06 ± 0.04
NRANVSKDELREKLAEV [RPS24A] | 3.53 ± 0.089 | 3.24 ± 0.11 | 3.37 ± 0.072 | 3.28 ± 0.088
NRGVKLEIVYGYALRDV [RPP1] | 2.54 ± 0.084 | 2.64 ± 0.077 | 2.46 ± 0.092 | 3.04 ± 0.065
NRRLFKKCIDFFEMLIS [RRI2] | 2.2 ± 0.037 | 2.05 ± 0.045 | 2.12 ± 0.058 | 2.02 ± 0.03
NRRWTQRRGPLVVYAED [RPL4A] | 2.44 ± 0.16 | 2.48 ± 0.17 | 2.12 ± 0.093 | 2.16 ± 0.1
NRTFTDPPFRIEEQGWG [TAF14] | 3.11 ± 0.067 | 3.24 ± 0.057 | 3.11 ± 0.1 | 3.07 ± 0.054
NSAIANEQEEKSEEVKA [RPC37] | 2.61 ± 0.08 | 2.79 ± 0.11 | 2.61 ± 0.055 | 2.62 ± 0.08
NSITSGGLKSCDLDFPL [YDL116W/NUP84] | 2.78 ± 0.078 | 3.11 ± 0.068 | 3.32 ± 0.072 | 3.2 ± 0.063
NSKNDSANVELFKRDCN [YCS4] | 2.75 ± 0.071 | 3.05 ± 0.089 | 3.25 ± 0.12 | 3.17 ± 0.07
NSLIEEINERSETQTKD [YCG1] | 3.07 ± 0.12 | 3.33 ± 0.12 | 3.17 ± 0.087 | 2.97 ± 0.1
NSSKPAFSFGAKSNEDK [YJL041W/NSP1] | 3.19 ± 0.1 | 3.13 ± 0.056 | 3.32 ± 0.077 | 3.33 ± 0.068
NSSNYAELFNNDIKLFV [PRP8] | 2.44 ± 0.041 | 2.48 ± 0.036 | 2.26 ± 0.048 | 2.27 ± 0.029
NSSVGNKTDAQAPTTGF [YJL041W/NSP1] | 3 ± 0.072 | 3.15 ± 0.056 | 3.19 ± 0.058 | 2.96 ± 0.094
NSTLKKVESQETLNDTI [YCS4] | 2.12 ± 0.1 | 2.43 ± 0.092 | 2.37 ± 0.13 | 2.1 ± 0.11
NSWFDVTWRTFTGDFLR [FAS1] | 2.75 ± 0.11 | 1.93 ± 0.093 | 1.98 ± 0.12 | 2.61 ± 0.069
NSYQPSPFFVLDEVDAA [SMC1] | 2.6 ± 0.12 | 2.57 ± 0.12 | 2.49 ± 0.12 | 2.77 ± 0.087
NTATNALRPSDIFGANA [YOR098C/NUP1] | 3.08 ± 0.069 | 3.24 ± 0.074 | 3.27 ± 0.061 | 3.2 ± 0.074
NTCTISTSKFESQYPIV [SWP82] | 2.57 ± 0.089 | 2.67 ± 0.11 | 2.97 ± 0.074 | 2.81 ± 0.071
NTEGSVVYEDSLELEKV [SNF2] | 2.98 ± 0.063 | 2.94 ± 0.062 | 2.48 ± 0.095 | 3.01 ± 0.095
NTFVTRLNNVFVIGEQG [RPS4A] | 3.29 ± 0.096 | 2.89 ± 0.09 | 3.22 ± 0.13 | 3.16 ± 0.094
NTKEEFAAAPNDTSSGT [SNF5] | 2.97 ± 0.067 | 3.06 ± 0.062 | 2.96 ± 0.055 | 2.9 ± 0.062
NTLEFIIEQLSIAAERY [YCG1] | 2.29 ± 0.052 | 2.62 ± 0.072 | 2.16 ± 0.066 | 2.39 ± 0.036
NTLLISGPFKVNGVPLR [RPL6A] | 2.25 ± 0.074 | 2.36 ± 0.059 | 2.28 ± 0.076 | 2.72 ± 0.04
NTLYTAIITDDLDTVLK [SRP72] | 2.19 ± 0.039 | 2.5 ± 0.031 | 2.44 ± 0.041 | 2.6 ± 0.035
NTNNINNSSSGMNNASA [YGL172W/NUP49] | 3.33 ± 0.11 | 3.17 ± 0.079 | 3.25 ± 0.056 | 3.22 ± 0.094
